Results from paper PMC2033760, “Interleukin 1 modulates growth of human renal carcinoma cells in vitro” (British Journal of Cancer, 1995).

Target: T1, IL-1 receptor type I (human (endogenous in A-498), UniProt P14778 18-569)
T1 construct: In the functional row on Caki-2 cells the endogenous receptor of those cells is meant; it was not detected there directly; also called IL-1 receptor type I (80 kDa); source: endogenous, on A-498 cells
T1 sequence (looked up): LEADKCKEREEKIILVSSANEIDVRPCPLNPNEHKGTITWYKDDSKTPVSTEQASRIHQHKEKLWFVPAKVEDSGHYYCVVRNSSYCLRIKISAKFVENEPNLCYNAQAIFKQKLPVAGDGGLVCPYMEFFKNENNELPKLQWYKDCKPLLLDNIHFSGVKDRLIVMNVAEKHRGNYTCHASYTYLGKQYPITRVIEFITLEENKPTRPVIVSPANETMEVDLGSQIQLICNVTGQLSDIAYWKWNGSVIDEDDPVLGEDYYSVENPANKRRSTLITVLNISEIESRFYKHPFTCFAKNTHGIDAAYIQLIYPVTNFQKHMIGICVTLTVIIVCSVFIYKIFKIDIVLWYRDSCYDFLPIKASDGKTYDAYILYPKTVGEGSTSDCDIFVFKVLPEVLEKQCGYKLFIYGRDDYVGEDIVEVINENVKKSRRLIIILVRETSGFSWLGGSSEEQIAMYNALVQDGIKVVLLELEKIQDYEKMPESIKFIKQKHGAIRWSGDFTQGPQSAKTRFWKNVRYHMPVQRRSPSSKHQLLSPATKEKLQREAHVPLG
Assay: radioligand binding; [125I]IL-1 alpha at increasing concentrations (direct) or at 80 pM with increasing unlabelled IL-1 alpha (competition) on subconfluent A-498 cells in 24-well plates; cells washed with binding medium pH 3.0 for 30 s beforehand; binding medium with 20 mM HEPES pH 7.0; 3 h at 4 C; Scatchard analysis, two classes of binding sites
Details: one partner purified

B1: [125I]IL-1 alpha (ligand, UniProt P01583 113-271, looked up)
chain: SAPFSFLSNVKYNFMRIIKYEFILNDALNQSIIRANDQYLTAAALHNLDEAVKFDMGAYKSSKDDAKITVILRISKTQLYVTAQDEDQPVLLKEMPEIPKTITGSETNLLFFWETHGTKNYFTSVAHPNLFIATKQDYWVCLAGGPPSITDFQILENQA
modifications: 125I label (radioiodinated)
notes: interleukin 1 alpha, the 17 kDa form as printed; also called radiolabelled interleukin 1 alpha; source: bought: Amersham-Buchler
**Q.** Which results are given for B1?
**A.** KD of the high-affinity sites: 45 pM; KD of the low-affinity sites: 1300 pM
